For 2 molecules, Kd results are on record in patent US20210340276A1 (published 2021).

The test deals with human cancer-specific MUC1 (on breast cancer cell line T-47D cells) (human, UniProt P15941 24-1255, cancer-specific incomplete O-glycosylation (T, Tn, 2,3ST) of the tandem repeat, as described in the background). The test can be described thus: Cell ELISA.

B1: P10-1 Fab (Fab, V domains shown)
VH: QVQLVQSGAEVKKPGASVKVSCKASGYTFTNYGLSWVRQAPGQGLEWMGENHPGSGIIYHNEKFRGRVTLTADRSTSTAYMELSSLRSEDTAVYYCARSSGTRGFAYWGQGTLVTVSS
VL: DVVMTQTPLSLSVTPGQPASISCRSSQSIVHSNGNTYLEWYLQKPGQSPQLLIYRVSNRFSGVPDRFSGSGSGTDFTLKISRVEAEDVGVYYCFQGSHGPWTFGQGTKLEIKR
Consider B1, for which the Kd (as a rule, the constant that tells how readily two partners part at equilibrium) turned out to be 0.35 nM.

B2: P10-2 Fab (Fab, V domains shown)
VH: QVQLVQSGAEVKKPGASVKVSCKASGYTFTNYGLSWVRQAPGQGLEWMGENHPGSGIIYHNEKFRGRVTLTADRSTSTAYMELSSLRSEDTAVYYCARSSGTRGFDYWGQGTLVTVSS
VL: DVVMTQTPLSLSVTPGQPASISCRSSQSIVHSNGNTYLEWYLQKPGQSPQLLIYRVSNRFSGVPDRFSGSGSGTDFTLKISRVEAEDVGVYYCFQGSHGPWTFGQGTKLEIKR
modifications: heavy chain N-terminal glutamine modified into pyroglutamic acid in a great majority of purified antibodies (Example 2)
Consider B2, for which the Kd stood at 0.29 nM.
